Test results as given in publication PMC3884763.

Target: Cavernularia obesa green fluorescent protein (CoGFP), wild-type, with a histidine tag at the N-terminus (Cavernularia obesa)
Test: SEC

Substance: Cavernularia obesa green fluorescent protein (CoGFP), wild-type, with a histidine tag at the N-terminus (natural protein)
- stoichiometry N: 2
